# Measured values from paper PMC7707817.
# How the values were obtained:
# [1] = target: ClpP+C (E. coli ClpP C91V, C113A with a cysteine appended after Asn193) (E. coli); experiment: SEC; Superdex-200 of the quenched cross-linking reaction; 50 mM HEPES-KOH pH 7.5, 300 mM NaCl, 20 mM MgCl2, 10% glycerol, 2 mM TCEP; peak 2 = uncrosslinked ClpP+C
# [2] = target: ClpP+C (E. coli ClpP C91V, C113A with a cysteine appended after Asn193) (E. coli); experiment: cross-linking; E613CClpA‡ (4 µM) and ClpP+C (9.6 µM) mixed; 50 mM HEPES-KOH pH 7, 300 mM NaCl, 20 mM MgCl2, 10% glycerol, 5 mM EDTA; 5 mM ATPγS, 200 µM bismaleimidoethane (BMOE), room temperature, 45 min; quenched with 50 mM DTT; peak-1 pool of Superdex-200 SEC read by reducing SDS-PAGE (Coomassie)
stoichiometry N [1],percent of ClpA crosslinked to ClpP [2] [%],Substance
14,,"ClpP+C (E. coli ClpP C91V, C113A with a cysteine appended after Asn193) (enzyme)"
,90,"E613C ClpA‡ (E. coli ClpAΔC9 with C47S, C203S, C243S and E613C) (from UniProt P0ABH9 1-749) (enzyme)"
